Assay [1] addresses T1, recombinant human Nectin4-His protein (human, UniProt Q96NY8 32-349).
T1 construct: Analyte of the SPR assay; May be the same protein as m12; also called human Nectin-4 ECD; not shown: His tag
T1 sequence: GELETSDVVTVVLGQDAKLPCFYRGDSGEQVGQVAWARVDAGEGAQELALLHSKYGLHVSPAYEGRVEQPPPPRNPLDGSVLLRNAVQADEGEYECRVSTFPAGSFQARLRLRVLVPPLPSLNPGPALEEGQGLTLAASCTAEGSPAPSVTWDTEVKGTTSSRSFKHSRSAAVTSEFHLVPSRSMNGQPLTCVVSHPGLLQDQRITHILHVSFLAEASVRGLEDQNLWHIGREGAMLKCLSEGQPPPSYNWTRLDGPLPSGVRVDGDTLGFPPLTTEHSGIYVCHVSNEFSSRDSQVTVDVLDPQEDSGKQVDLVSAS
The assay can be described thus: SPR (BIAcore 3000), antibody captured by anti-human IgG, Nectin4-His as analyte. As for the experimental part: The binding kinetics of the disclosed anti-Nectin-4-specific antibodies to recombinant human Nectin-4 was determined by Surface plasmon resonance (SPR) using BIAcore 3000 system. Briefly, CM5 chip was immobilized via amine coupling chemistry with anti-human IgG antibody (GE, Cat No BR-1000-12, lot 10283568) following the application wizards on Flow cell 4. Flow cell 3 remained unmodified to serve as a reference cell for subtraction of systematic instrument noise and drift. Run Fc4-3 detection with double blank (Fc3 and blank analyte buffer). Antibody samples were diluted to 1 ug/mL in HBS-EP and injected at a flow rate of 10 ul/min for 1 minute. Analyte recombinant human Nectin4-His protein was diluted from 10 to 0.156 nM ([…], 5 points to 0 nM in HBS-EP buffer) and injected at 50 uL/minute for 2 minutes, followed by 6 minutes dissociation. All the analyses were performed with double blanks, Fc3 and blank analyte buffer, to reduce the background. Data were analyzed using BIAevaluation software (version 4.1.1) by 1:1 binding with mass transfer model with global fit to determine apparent binding kinetics.
A general note: In SPR one partner is held on a chip, and binding of the other changes the refractive index at the surface.

The target in assay [2] is T2, human Nectin-1 with His tag (ACROBiosystems, catalog number PV1-H5223) (human, UniProt Q15223 31-355, biotinylated in Example 3 (sites not given)).
T2 construct: Bought protein; also called biotinylated human Nectin-1
T2 sequence: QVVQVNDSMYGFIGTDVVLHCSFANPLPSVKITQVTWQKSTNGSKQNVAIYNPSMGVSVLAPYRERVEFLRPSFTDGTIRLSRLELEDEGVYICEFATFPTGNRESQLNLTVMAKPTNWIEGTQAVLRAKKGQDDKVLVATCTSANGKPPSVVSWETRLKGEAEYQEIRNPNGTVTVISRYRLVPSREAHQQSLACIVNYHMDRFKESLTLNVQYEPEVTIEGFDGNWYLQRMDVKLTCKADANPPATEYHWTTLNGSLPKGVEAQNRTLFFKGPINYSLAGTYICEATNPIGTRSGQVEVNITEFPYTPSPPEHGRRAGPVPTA
The assay can be described thus: ELISA or Gator binding assay. For orientation: In an ELISA, binding on a coated surface is turned into a signal by an enzyme label.

Assay [3] addresses T3, human Nectin 2 (ACROBiosystems, Catalog no: PV2-H52E2) (human, UniProt Q92692 32-360).
T3 construct: extracellular domain
T3 sequence (looked up): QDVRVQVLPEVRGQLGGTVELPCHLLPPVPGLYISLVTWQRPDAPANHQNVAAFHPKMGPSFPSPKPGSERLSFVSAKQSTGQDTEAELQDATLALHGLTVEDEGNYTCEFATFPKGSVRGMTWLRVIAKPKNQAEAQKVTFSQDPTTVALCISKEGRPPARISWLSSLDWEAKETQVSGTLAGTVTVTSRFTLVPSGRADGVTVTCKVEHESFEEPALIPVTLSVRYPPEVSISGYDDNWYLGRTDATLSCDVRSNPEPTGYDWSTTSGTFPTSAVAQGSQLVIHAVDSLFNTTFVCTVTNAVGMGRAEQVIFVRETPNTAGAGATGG
Briefly: ELISA or Gator binding assay.

For assay [4], the target named is T4, cynomolgus monkey Nectin-4 (cynomolgus monkey, UniProt Q96NY8 32-510 (human entry)).
T4 construct: Transiently expressed on 293T cells; also called Cyno Nectin-4
T4 chain: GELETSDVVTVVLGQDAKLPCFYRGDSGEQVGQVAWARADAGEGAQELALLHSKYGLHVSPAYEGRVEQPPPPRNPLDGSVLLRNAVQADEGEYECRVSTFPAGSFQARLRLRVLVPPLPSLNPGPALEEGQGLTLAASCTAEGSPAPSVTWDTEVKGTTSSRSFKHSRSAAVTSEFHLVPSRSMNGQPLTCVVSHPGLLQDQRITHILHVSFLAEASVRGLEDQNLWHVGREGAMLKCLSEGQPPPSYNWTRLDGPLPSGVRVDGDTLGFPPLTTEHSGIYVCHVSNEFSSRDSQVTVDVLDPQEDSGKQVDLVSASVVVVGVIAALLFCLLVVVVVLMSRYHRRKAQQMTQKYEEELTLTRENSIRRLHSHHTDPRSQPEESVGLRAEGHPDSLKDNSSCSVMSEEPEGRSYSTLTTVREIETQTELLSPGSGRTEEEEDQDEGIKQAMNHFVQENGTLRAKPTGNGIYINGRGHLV
Briefly: flow cytometry, transfected 293T cells; +++ EC50 less than 5 nM. As for the experimental part:
(§1) CDNAs encoding Nectin-4 protein from cynomolgus monkey (SEQ ID NO: 62), rat (SEQ ID NO: 63), or mouse (SEQ ID NO: 64) were separately cloned into a pcDNA3.1-based mammalian expression plasmid. The respective plasmids were transfected to human 293T cells in a similar way described in Example 6. The binding EC50 of disclosed human Nectin-4 antibodies to species-specific Nectin-4 transiently expressed on 293T cell surface was measured by flow cytometry.

The target of another assay is T5, mouse Nectin-4 (mouse, UniProt Q8R007 31-508).
T5 construct: Transiently expressed on 293T cells; also called murine Nectin-4
T5 sequence: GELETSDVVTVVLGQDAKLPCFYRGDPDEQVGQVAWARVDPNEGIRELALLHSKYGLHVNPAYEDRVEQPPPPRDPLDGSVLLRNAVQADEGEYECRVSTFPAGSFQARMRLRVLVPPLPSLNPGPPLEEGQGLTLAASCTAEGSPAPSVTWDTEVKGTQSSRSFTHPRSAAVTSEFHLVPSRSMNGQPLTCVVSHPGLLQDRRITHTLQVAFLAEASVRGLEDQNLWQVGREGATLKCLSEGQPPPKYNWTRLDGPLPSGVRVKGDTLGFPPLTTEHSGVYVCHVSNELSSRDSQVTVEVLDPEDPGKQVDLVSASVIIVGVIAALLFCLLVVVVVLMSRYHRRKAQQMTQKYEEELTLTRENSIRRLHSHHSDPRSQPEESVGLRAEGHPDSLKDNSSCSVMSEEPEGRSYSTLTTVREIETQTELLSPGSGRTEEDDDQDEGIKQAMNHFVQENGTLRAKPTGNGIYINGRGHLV
Briefly: flow cytometry, transfected 293T cells; ++ EC50 between 5 nM and 25 nM. As for the experimental part:
as §1
(In general: In flow cytometry, cells or beads pass a laser one at a time.)

B1: N4_mAb 3 (antibody, human IgG1, V domains shown)
VH: EVQLQQSGAELVKPGASVKLSCTVSGFNIKDTYMHWVKQRPEQGLEWIGRIDPANGNTKYDPKFQGKATIIADKASNTAYLQLSSLTSEDAAVYYCAHYYGSSYFAMDCWGQGTSVTVSS
VL: DIVMTQSHKFMSTSVGDRVSITCKASQDVSTAVAWYQQKPGQSPKLLIYWASTRHTGVPDRFTGSGSGTDYTLTISSVQTEDLALYYCQQHYSTPLTFGAGTKLELK
notes: Tested as chimera (human IgG1/kappa constants); not shown: human IgG1 constant region (Uniprot P01857); human Kappa light chain constant region (UniProt P01834)
Turning to B1, in assay [1], the Kd turned out to be 17.2 nM. Further, the binding result in assay [2] and in assay [3] was “no binding” throughout. The molecule also yielded an EC50 in assay [4] of less than 5 nM.

B2: N4_mAb 6 (antibody, human IgG1, V domains shown)
VH: QVQLQQSGPELVKPGASVRISCKASGYTFTTYYIHWVKQRPGQGLEWIGWIYPGNVNTKYTENFKDKATLTADKSSSTAYMQLSSLTSEDSAVYFCARGLYYFDFWGQGTTLTVSS
VL: SIVMTQTPKFLLVSAGDRVTITCKASQSVNNDVAWYQQKPGQSPKLLIYYASNRDTGVPDRFTGSGFGTDFTFTISSVQAEDLAVYFCQQDYSSPYTFGGGTKLEIK
notes: Tested as chimera (murine variable regions, human IgG1/kappa constants); not shown: human IgG1 constant region (Uniprot P01857); human Kappa light chain constant region (UniProt P01834)
For the molecule B2, in assay [1], the Kd was 0.392 nM. In addition, the EC50 is 5 to 25 nM with mouse Nectin-4 and less than 5 nM in assay [4]. The binding result in assay [2] and in assay [3] was “no binding” in each case.

B3: N4_mAb 8 (antibody, human IgG1, V domains shown)
VH: QVQLQQSGPVLVKPGASVRISCKASGYTFTSYYIHWVKQRPGQGLEWIGWIYPGNVNTKYNENFRDKATLTADKSSSTSYMQLSSLTSEDSAVYFCARGIYYFDYWGQGTTLTVSS
VL: IIVMTQTPKFLLVSAGDRVTITCKASQSVNNDVAWYQEKPGQSPKLLIYYASNRDTGVPDRFTGSGYGTDFTFTISTVQAEDLAVYFCHQDYSSPFTFGSGTKLEIK
notes: as for B2
Turning to B3, the Kd in assay [1] amounted to 0.375 nM. Also, the EC50 is 5 to 25 nM in the assay with mouse Nectin-4 and less than 5 nM in assay [4]. Moreover, the binding result in assay [2] and in assay [3] was “no binding” each time.

B4: N4_mAb 7 (antibody, human IgG1, V domains shown)
VH: QVQLQQSGPELVKPGASVKMSCKASGYTFTTYYIHWVKQRPGQGLEWIGWIYPGNAGIKSNEKFKGKTTLTADKSSSTAYMLLSSLTSEDSAIYFCARGVYFFDYWGQGTTLTVSS
VL: SIVMTQTPKFLLVSAGDRVTITCKASQSVNNDVSWFQQKPGQSPKLLIYYASNRYTGVPDRFSGSGYGTDFTFTITTVQAEDLAVYFCQQDYSSPYTFGGGTKLEIK
notes: as for B2
B4: the Kd in assay [1] was 0.39 nM. The results for the EC50 (with mouse Nectin-4; in assay [4]) were 5 to 25 nM and less than 5 nM, respectively. The binding result in assay [2] and in assay [3] was “no binding” in each case.

B5: N4_mAb 2 (antibody, human IgG1, V domains shown)
VH: QVQLKQSGPNLVQPSQSLSITCTVSGFSLTTYGAHWVRQSPGKGLEWLGVIWRGGSTDYNAAFMSRLSITKDNSKSQVFFKMNSLQADDTAIYYCAKIGYDGYAMDNWGQGTSVTVSS
VL: DFQVTQSPASLSASVGETVTITCRTSENIHNYLAWYQQKQGKSPQLLVYNAKTLADGVPSRFSGSGSGTQYSLKINSLQPEDFGTYYCQHFWSSPWTFGGGTKLEIK
notes: as for B1
B5: in assay [1], the Kd was 0.884 nM. The EC50 is 5 to 25 nM with mouse Nectin-4 and less than 5 nM in assay [4]. In addition, the binding result in assay [2] and in assay [3] was “no binding” in each case.

B6: N4_mAb 5 (antibody, human IgG1, V domains shown)
VH: EVQLQQSGPDLVKPGASVKISCKASGYSFTGHYMHWVKQSHGKSLEWIGRVNPNNGGSSYNQKFKDKAILTVDKSSTTAYMELRSLTSEDSAVYYCARDPLGGSYGFAYWGQGTLVTVSA
VL: DIVLTQSPASLAVSLGQRATISCRASQSVTTSSYSYMHWYQQKPGQPPKLLIKYASNLESGVPARFSGSGSGTDFTLNIHPVEEEDTATYYCQHSWEIPYTFGGGTKLEMK
notes: as for B1
As to B6, in assay [1], the Kd was determined as 1.58 nM. In addition, the binding result in assay [2] and in assay [3] was “no binding” each time. The EC50 in assay [4] was less than 5 nM.

B7: N4_mAb 1 (antibody, human IgG1, V domains shown)
VH: QVQLKQSGPGLVQPSQSLSITCTVSGFSLTNYGVNWVRQPPGKGLEWLGVIWSGGSTDYNAAFISRLSISKDISKSQVFFKMNSLQADDTAKYYCAREGYDGYAMDYWGQGTSVTVSS
VL: DIQMTQSPASLSVSVGETVTITCRASENIFSSLAWYQQKQGKSPQLLVYGATNLADGVPSRFSGSGSGTQYSLKINSLQSEDFGTYWCQHFWGNPWTFGGGTKLEIK
notes: as for B2
As to B7, the Kd in assay [1] was found to be 1.25 nM. The binding result in assay [2] and in assay [3] was “no binding” in each case. The EC50 in assay [4] is less than 5 nM.

B8: N4_mAb 4 (antibody, human IgG1, V domains shown)
VH: DVQLQESGPDLVKPSQSLSLTCTVTGYSITSAYNWHWIRQFPGNKLEWMGYIHYSGRTNYNPSLKSRISITRDTSKNQFFLQLNSLTTEDTATYYCARWITTATGWYLDVWGAGTTVTVSS
VL: not shown
notes: as for B1
For the molecule B8, the Kd in assay [1] turned out to be 1.26 nM. The binding result in assay [2] and in assay [3] was “no binding” each time. The molecule also returned a 50% effective concentration (EC50) in assay [4] of less than 5 nM.

One may read the Kd as the equilibrium constant for the complex coming apart. In general, EC50 refers to the concentration giving half of the maximal effect.

The values above are taken from US12723100 (CSPC MEGALITH BIOPHARMACEUTICAL, dated 2026).
